Data: patent publication US20220154181A1
Each block holds one molecule with its values, some of them ahead of it.

Columns and labels:
[1] = tested on: T1, NHS-Rhodamine labelled recombinant Tma17p (γ-subunit); assay: titration of NHS-Rhodamine labelled γ-subunit against ΔTma17p-FAS, native agarose gel, fluorescence of FAS-bound Tma17p quantified
T1 sequence: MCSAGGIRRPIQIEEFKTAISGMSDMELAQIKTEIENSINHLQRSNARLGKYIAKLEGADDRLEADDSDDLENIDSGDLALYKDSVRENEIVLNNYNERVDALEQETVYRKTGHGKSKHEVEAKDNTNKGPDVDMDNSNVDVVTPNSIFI

[2] = molecular target: Saccharomyces cerevisiae type I fatty acid synthase (α6β6, 2.6 MDa) without the γ-subunit (Saccharomyces cerevisiae) (UniProt P19097); assay: cell-based or functional assay
UniProt P19097, sequence (P19097 whole entry, chain 1 of 2): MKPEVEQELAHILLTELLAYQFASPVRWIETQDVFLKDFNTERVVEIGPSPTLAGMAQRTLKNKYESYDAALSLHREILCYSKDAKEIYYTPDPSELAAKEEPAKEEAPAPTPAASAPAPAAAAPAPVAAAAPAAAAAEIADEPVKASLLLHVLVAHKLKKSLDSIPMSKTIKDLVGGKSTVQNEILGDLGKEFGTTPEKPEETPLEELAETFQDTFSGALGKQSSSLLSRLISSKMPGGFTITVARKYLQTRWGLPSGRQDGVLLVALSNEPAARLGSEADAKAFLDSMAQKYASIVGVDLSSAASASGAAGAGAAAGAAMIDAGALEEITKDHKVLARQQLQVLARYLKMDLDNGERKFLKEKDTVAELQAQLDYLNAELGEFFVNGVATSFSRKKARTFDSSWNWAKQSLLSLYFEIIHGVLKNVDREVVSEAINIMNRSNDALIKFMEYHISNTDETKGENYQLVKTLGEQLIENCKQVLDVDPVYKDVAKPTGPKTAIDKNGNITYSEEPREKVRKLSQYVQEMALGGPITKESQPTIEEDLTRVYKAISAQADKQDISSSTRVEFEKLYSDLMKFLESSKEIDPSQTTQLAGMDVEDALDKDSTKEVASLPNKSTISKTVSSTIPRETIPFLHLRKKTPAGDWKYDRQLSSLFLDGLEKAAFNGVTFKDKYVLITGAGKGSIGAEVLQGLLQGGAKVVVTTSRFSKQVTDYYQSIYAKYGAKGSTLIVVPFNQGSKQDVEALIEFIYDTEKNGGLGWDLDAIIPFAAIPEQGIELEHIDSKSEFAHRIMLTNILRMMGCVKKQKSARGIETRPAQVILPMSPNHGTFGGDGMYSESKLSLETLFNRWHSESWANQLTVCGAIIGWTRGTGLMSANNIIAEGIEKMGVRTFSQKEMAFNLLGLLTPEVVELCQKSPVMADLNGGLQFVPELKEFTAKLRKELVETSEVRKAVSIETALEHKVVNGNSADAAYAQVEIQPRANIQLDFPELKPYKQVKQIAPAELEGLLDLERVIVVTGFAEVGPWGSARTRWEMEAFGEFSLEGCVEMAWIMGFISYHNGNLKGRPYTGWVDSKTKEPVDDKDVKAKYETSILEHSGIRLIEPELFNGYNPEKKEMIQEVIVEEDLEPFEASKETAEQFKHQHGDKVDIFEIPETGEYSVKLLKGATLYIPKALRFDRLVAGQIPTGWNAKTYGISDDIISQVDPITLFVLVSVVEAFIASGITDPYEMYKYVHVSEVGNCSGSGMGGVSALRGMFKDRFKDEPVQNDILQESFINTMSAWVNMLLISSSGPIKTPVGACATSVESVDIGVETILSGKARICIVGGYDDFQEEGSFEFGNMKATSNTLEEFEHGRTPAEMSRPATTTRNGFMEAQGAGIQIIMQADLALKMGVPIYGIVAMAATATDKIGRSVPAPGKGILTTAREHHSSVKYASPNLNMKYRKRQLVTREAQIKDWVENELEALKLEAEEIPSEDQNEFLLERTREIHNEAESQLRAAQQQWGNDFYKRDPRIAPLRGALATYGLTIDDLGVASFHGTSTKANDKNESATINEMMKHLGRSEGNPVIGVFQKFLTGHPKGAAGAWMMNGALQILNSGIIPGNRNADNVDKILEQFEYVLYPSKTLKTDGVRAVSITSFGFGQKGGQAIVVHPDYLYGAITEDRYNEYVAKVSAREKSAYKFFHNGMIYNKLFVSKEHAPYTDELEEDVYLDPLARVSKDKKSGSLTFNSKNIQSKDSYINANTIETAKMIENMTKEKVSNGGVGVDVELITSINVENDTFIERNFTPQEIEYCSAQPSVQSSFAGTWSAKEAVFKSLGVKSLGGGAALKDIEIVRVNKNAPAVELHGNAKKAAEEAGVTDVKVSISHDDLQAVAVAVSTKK
UniProt P19097, sequence (P07149 whole entry, chain 2 of 2, further chain): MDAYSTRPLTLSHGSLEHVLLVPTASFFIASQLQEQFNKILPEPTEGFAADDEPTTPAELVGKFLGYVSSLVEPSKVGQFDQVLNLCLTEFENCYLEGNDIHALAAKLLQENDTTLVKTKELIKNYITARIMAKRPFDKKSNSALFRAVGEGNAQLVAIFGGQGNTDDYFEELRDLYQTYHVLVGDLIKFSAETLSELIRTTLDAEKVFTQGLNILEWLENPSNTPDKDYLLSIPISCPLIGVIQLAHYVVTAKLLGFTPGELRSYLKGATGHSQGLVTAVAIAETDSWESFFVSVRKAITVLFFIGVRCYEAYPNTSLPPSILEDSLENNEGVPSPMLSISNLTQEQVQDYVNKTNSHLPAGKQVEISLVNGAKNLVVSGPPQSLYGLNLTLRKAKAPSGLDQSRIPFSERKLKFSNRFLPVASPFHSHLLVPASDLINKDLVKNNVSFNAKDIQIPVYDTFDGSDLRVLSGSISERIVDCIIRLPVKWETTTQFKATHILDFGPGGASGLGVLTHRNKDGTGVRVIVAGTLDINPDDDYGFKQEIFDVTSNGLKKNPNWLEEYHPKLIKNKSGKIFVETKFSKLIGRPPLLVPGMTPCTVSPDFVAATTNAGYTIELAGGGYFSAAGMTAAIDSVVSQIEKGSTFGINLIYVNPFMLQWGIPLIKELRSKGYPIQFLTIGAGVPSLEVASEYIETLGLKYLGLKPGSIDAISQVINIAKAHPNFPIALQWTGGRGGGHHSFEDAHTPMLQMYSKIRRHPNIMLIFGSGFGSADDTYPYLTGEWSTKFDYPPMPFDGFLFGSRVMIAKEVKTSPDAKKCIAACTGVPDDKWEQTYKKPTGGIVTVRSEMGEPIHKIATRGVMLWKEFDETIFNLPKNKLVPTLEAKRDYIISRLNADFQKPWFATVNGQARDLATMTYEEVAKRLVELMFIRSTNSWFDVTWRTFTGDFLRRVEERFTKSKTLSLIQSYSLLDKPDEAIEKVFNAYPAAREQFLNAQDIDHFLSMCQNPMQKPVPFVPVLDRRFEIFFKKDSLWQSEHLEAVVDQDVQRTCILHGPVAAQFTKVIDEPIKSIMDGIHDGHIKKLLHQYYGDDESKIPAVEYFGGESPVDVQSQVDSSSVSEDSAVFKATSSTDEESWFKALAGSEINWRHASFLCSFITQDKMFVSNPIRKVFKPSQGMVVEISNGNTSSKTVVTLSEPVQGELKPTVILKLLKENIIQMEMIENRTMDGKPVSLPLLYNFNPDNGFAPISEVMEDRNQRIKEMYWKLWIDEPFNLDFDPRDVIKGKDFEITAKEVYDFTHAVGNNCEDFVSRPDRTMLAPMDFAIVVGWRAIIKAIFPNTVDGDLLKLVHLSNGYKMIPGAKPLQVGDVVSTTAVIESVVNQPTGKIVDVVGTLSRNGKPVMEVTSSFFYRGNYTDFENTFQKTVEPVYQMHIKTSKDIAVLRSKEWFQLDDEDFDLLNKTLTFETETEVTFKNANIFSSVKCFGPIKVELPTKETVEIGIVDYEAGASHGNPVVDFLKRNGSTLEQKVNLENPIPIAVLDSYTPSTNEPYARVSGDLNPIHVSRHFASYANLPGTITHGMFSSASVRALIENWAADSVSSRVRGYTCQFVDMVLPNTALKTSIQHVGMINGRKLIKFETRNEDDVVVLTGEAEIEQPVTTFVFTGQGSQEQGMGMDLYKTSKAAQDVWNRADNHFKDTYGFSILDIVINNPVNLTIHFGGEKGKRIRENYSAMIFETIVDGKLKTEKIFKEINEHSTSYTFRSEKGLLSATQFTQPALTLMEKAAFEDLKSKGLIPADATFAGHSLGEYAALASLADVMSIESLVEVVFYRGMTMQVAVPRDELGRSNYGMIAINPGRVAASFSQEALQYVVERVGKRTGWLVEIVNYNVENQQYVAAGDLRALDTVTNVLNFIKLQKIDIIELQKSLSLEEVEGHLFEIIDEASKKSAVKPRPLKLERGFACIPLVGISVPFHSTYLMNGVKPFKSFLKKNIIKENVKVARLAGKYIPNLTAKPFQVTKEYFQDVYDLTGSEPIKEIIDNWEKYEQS

Molecule: Saccharomyces cerevisiae type I fatty acid synthase (α6β6, 2.6 MDa) without the γ-subunit
K0.5 (Hill equation) [1]: K0.5=2.1±0.2 µM

KMapp for NADPH, steady-state kinetics of the FAS holoenzyme (saturating γ-subunit) [2]: 155 µM | fold decrease of affinity for acetyl-CoA, steady-state kinetics [2]: 2 fold | fold decrease of affinity for malonyl-CoA, steady-state kinetics [2]: 4 fold | fold reduction in the binding affinity for NADPH, steady-state kinetics [2]: 15 fold | percent of selected cryo-EM particles in the rotated state, at a 6-fold excess of the γ-subunit [2]: 88% | percent of selected cryo-EM particles in the rotated state, at a 12-fold molar excess of the γ-subunit [2]: 95%
B1: Tma17p, the gamma-subunit of the yeast fatty acid synthase (TMA 17 molecule from Saccharomyces cerevisiae) (protein)
chain: T1 sequence
